The values below come from the nanobody polyreactivity screen of Harvey et al. (2022).

The nature of this series: yeast display, Sf9 membrane polyspecificity reagent, FACS + sequencing; frameworks hold sequencing errors. In a few lines: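 Galactose induction of a Saccharomyces cerevisiae BJ5465 synthetic nanobody display library ran 36–48 hours. The cells were then stained for 1 hour at 4 °C with 10% biotinylated, detergent-solubilized Sf9 membrane reagent, pulled down on streptavidin microbeads and FACS-sorted into low and high (top ~1%) gates on expression and reagent-binding fluorescence. Labels for polyreactivity follow the gate of origin.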
With “QVQLVESGGGLVQSGGSLRLSCAASGSTFSRYVMGSYRQAPGKERELVAAITNTGSTYYADSVKGRFTISRDNAKNTVYLQMNSLKPEDTAVYYCAATQYRSDGWRYDYWGQGTQVTVSS”, the “polyreactivity (PSR sort gate)” value is reported as “high polyreactivity”.
Next, “QVQLVESGGGLVQSGGSLRLSCAASGSTLIGNAMGWYRQAPGKERELVAAISSGGRTYYADSVKGRFTISRDNAKNTVYLQMNSLKPEDTAVYYCAADTVGTNVVSPELDYWGQGTQVTVSS”: “low polyreactivity”; “QVQLVESGGGLVQSGGSLRLSCAASGYIFGYYAMGWYRQAPGKERELVAAITGTDDTYYADSVKGRFTISRDNAKNTVYLQMNSLKPEDTAVYYCAAYSWWNEYDYWGQGTQVTVSS”: “high polyreactivity”; “QVQLVESGGGLVQSGGSLRLSCAASGYIIPRYAMGWYIHAPGKERELVAGITTGVRTNYADSVKGRFTISRDNAKNSVYLQMNSLKPGDTAVYYCNARYFRYRYNRYDYWGQGTQVTVSS”: “high polyreactivity”.
Next, “QVQLVESGGGLVQSGGSLRLSCAASGYIVRNAMGWYRQAPVKERELVAAITWSGGSTYYADSVKGRFTISRDNAKNTVYLQMNSLKPEDTAVYYCNARRNVRQTFGYEYWGQGTQVTVSS”: “high polyreactivity”; “QVQLVESGGGLVQSGGSLRLSSASSGRTFSGYVMGWYRQAPGKEREFVAVISRGGSTYYADSVKGRFTISRDNAKNTVYLQMNSLKPEDTAVYYCAGRLTYTGGQGAYDYWGQGTQVTVSS”: “high polyreactivity”.
The same measure for “QVQLVESGGGLVQSGGSLRLTCAASGFIFHKYVMGWYSPAPGKEREMVAAISRSGASTYYADSVKGRFTISRDNAKNTVYLQMNSLKPEDTAVYYCAKDYQTYSGSSDFDYWGQGSQVTVSS”: “high polyreactivity”; for “QVQLVESGGGLVQSGGSLRLTCAASGSILWYNGMGWYSQAPGKERELVAAITSGGSTNYADSVKGRFTISRDNAKNTFYLHMNSLKPEDTEVYYCKARPYWFGSYGYWGQGTKVTVSS”: “low polyreactivity”; for “QVQLVESGGGLVQSRGSLSLICAASGRTYRTYTMGWYRQSPGKERQFVAAIDRTGGSTYYADSVKGRFTISRDNAKNTVYLQMNSLKPEDTAVYYCAATASYIYWGKIYGYDYWGQGTQVTVSS”: “high polyreactivity”.
With “QVQLVESGGGLVQTGGSLRLSCAASGFNFYINAMGWYRQAPVKERELVAAINWRTGSTYYADSVKGRFTISRDNAKNTVYLQMNSLKQEDTAVYYCAAYGYWRRADTEFDYWGQGTQVTVSS”, the “polyreactivity (PSR sort gate)” value is listed as “low polyreactivity”.
The same measure for “QVQLVESGGGLVQTGGSLRVSCAASGLIFSRSAMGWYRQAPGKVRELVAAISSRGGSTYYADSVKGRFTISRDNAKNTVYLQMKSLIPEDTAVYFCDASRSYVHPVIGYGYWGQGTQVTVSS”: “high polyreactivity”; for “QVQLVESGGGLVQVGGILLLSCAASGFTFYDYAMGWYRQAPGKERELVAAISRGGSTYYADSVKGRFTISRDNAKNTVNLQMNSLKPEDTAVYYCNARPTRIYHGMVYWGQGTQVTVSS”: “low polyreactivity”.
Consider “QVQLVESGGGLYQAGGSLRLSCAASGRIFATNAMRWSRQAPGKERELVATITRSAGRTYYADSVKGRFTISRDNAKNTVYLQMNSLKPEDTAVYYCAASYWDTEPGYREYDYWGQGTQVTVSS”, for which the “polyreactivity (PSR sort gate)” value is reported as “low polyreactivity”.
Next, “QVQLVESGGGSVQAGGSLRLSCAASGFTIRTYAMGWYRQAPGKESELVAAITSSGSSTYYAYSVKGRFTISRDNAKNTVYLQMNSLKPEDTAVYYCAADAPRSYRFGYWGQGTQVTVSS”: “high polyreactivity”.
The same measure for “QVQLVESGGGVDQAGGSLRLSCAASGLSLRVNVMGWYRPAPGKERELVAAISGGGRTYYADSVKGRFTISRDNAKNTVYLQMNSLKPEDTAVYYCATVRRRLSLTYDYWGQGTQVTVSS”: “high polyreactivity”.
Next, “QVQLVESGGGVQAGGSLRLSCAASGRTFVPYAMGWYRQAPGKERELVAAISSIGDSTSYADSVKGRFTISRDNAKNTVYLQMNCLKPEDTAVYYFAAAEDRDRLVPKLDYWGQGTQVTVSS”: “low polyreactivity”.
On to “QVQLVESGGGVVQAGGSLRLSCAASGFIFEYYPMGWYRPAPGKERELVAAISWSGGSTYYADSVKGRFTISRDNAKNTVYLQMNSLKPEDTAVYYCAAGRYFHHPTSYYYWGQGTQVTVSS”, for which the “polyreactivity (PSR sort gate)” value is recorded as “high polyreactivity”.
The same measure for “QVQLVESGGGVVQAGGSLRLSCAASGFIFYQYAMGWYRQAPGKERELVAAITSRGGRTYYADSVKGRFTISRDNAKNTVYLQMNSLKPEDTAVYYCAVRKASDYYYWGQGTQVTVSS”: “high polyreactivity”; for “QVQLVESGGGVVQAGGSLRLSCAASGFTFVRYTMGWYRQAPGKERELVAAITKRGGSTYYADSVKGRFTISRDNAKNTVYLQMNSLKPEDTAVYYCAAAVGNTDREYDYWGQGTQVTVSS”: “low polyreactivity”; for “QVQLVESGGGVVQAGGSLRLSCAASGIIFYRYAMGWYRQAPGKERELVARITNGGNTYYADSVKGRFTISRDNAKNTVYLQMNSLKPEDTAVYYCAVRVFGYSPYSNWMYYWGQGTQVTVSS”: “high polyreactivity”.
With “QVQLVESGGGVVQAGGSLRLSCAASGITFTVNAIGWYRQAPGKDREFFAAITYSGGNTYYADSVKGRFTISRDNAKNTVYLQMNSLTPEDTAVYYCNSDSAVGIVGARFFYDYWGQGTQVTVSS”, the “polyreactivity (PSR sort gate)” value is listed as “low polyreactivity”.
As for “QVQLVESGGGVVQAGGSLRLSCAASGITLAWYAMGWSRQAPGKERELVAAINSGGSTYYADSVKGRFTISRDTAKNTVYLQMNSLKPEDTAVYYCNTDDDSSSTGYYSWGQGTQVTVSS”, the “polyreactivity (PSR sort gate)” value is reported as “low polyreactivity”.
Next, “QVQLVESGGGVVQAGGSLRLSCAASGITYGRNTMGWYIHAPGKERELVAAIDSGGNTYADSVKGRFTISRDNAKNTVYLQMNSLKPEDTAVYYGAATFIQVVVNVQLYDYDYWGQGTQVNVSS”: “low polyreactivity”; “QVQLVESGGGVVQAGGSLRLSCAASGLIFRRYAMGWSRQAPGIDRELVAAISGNGGSTYYADSVKGRFTISRDNAKNTVYVQMTCLKPEDTAVYYCAARSLGIYNYWGQGTQVTVSS”: “high polyreactivity”.
The same measure for “QVQLVESGGGVVQAGGSLRLSCAASGRIFPYNAMGWYRQAPGKERELVAAISSGGSTTYADSVKGRFTISRDNAKNTVYLHMNSLKPEDTAVYYCAREVYRHYAPVGYDYWGQGTQVTVSS”: “high polyreactivity”; for “QVQLVESGGGVVQAGGSLRLSCAASGRIFRYYAMGWYRQAPGKERELVAGITTGGGSTYYADSVKGRFTISRDNAKNTVYLQMNSLKPEDTAVYYCAARYYTTFYWGQGTQVTVSS”: “high polyreactivity”.
Turning to “QVQLVESGGGVVQAGGSLRLSCAASGRIFSVYAMVWYRQAPGKEREFVGSISWRGGRTYYADSVKGRFTISRDNAKNTVYLQMISLKPEDTAVYYCAAVSYPAVYGFDYWGQGTQVTVSS”, the “polyreactivity (PSR sort gate)” value is on record as “high polyreactivity”.
Next, “QVQLVESGGGVVQAGGSLRLSCAASGRTFCIYAMGWYRPAPGKEREVVAAITGRGGSTHYADSVKGRFTISRDNAKNTVYLQMNSLKPEDTAVYYGAADYRYNRGITSNKDYDYWGQGTQVTVSS”: “low polyreactivity”; “QVQLVESGGGVVQAGGSLRLSCAASGRTFGWNTMGWYRQAPGKERELVAAISYSTGRTYYADSVKGRFTISRDNAKYTVYLQMNSLKPEDTAVYYCAATRPYRYNYWGQGTQVTVSS”: “high polyreactivity”.
The same measure for “QVQLVESGGGVVQAGGSLRLSCAASGRTFRRNAMGWYRQAPGKERELVAAITSSGGSTYYADSVKGRFTISRDNAKNTVYFQMNSLKPEDTEVYYCNAFYTGRSAPDSWGQGTQVTVSS”: “high polyreactivity”.
